# Measurements from IntAct's records for PubMed 17719540.
# B1: Type 3 secretion system translocon protein SctE (Shigella flexneri), P18011 (parent)
# chain: MHNVSTTTTGFPLAKILTSTELGDNTIQAANDAANKLFSLTIADLTANQNINTTNAHSTSNILIPELKAPKSLNASSQLTLLIGNLIQILGEKSLTALTNKITAWKSQQQARQQKNLEFSDKINTLLSETEGLTRDYEKQINKLKNADSKIKDLENKINQIQTRLSELDPESPEKKKLSREEIQLTIKKDAAVKDRTLIEQKTLSIHSKLTDKSMQLEKEIDSFSAFSNTASAEQLSTQQKSLTGLASVTQLMATFIQLVGKNNEESLKNDLALFQSLQESRKTEMERKSDEYAAEVRKAEELNRVMGCVGKILGALLTIVSVVAAAFSGGASLALAAVGLALMVTDAIVQAATGNSFMEQALNPIMKAVIEPLIKLLSDAFTKMLEGLGVDSKKAKMIGSILGAIAGALVLVAAVVLVATVGKQAAAKLAENIGKIIGKTLTDLIPKFLKNFSSQLDDLITNAVARLNKFLGAAGDEVISKQIISTHLNQAVLLGESVNSATQAGGSVASAVFQNSASTNLADLTLSKYQVEQLSKYISEAIEKFGQLQEVIADLLASMSNSQANRTDVAKAILQQTTA
# Variants of: B1
# Details: with ipgc_shifl ipgC
row,Variant,effect of a mutation on the interaction
1,MHNVSTTTTGFPLAKILTSTELGDNTIQAANDAANKLFSLTIADLTANQNINTTNAHSTSNILIPEAKAPKSLNASSQLTLLIGNLIQILGEKSLTALTNKITAWKSQQQARQQKNLEFSDKINTLLSETEGLTRDYEKQINKLKNADSKIKDLENKINQIQTRLSELDPESPEKKKLSREEIQLTIKKDAAVKDRTLIEQKTLSIHSKLTDKSMQLEKEIDSFSAFSNTASAEQLSTQQKSLTGLASVTQLMATFIQLVGKNNEESLKNDLALFQSLQESRKTEMERKSDEYAAEVRKAEELNRVMGCVGKILGALLTIVSVVAAAFSGGASLALAAVGLALMVTDAIVQAATGNSFMEQALNPIMKAVIEPLIKLLSDAFTKMLEGLGVDSKKAKMIGSILGAIAGALVLVAAVVLVATVGKQAAAKLAENIGKIIGKTLTDLIPKFLKNFSSQLDDLITNAVARLNKFLGAAGDEVISKQIISTHLNQAVLLGESVNSATQAGGSVASAVFQNSASTNLADLTLSKYQVEQLSKYISEAIEKFGQLQEVIADLLASMSNSQANRTDVAKAILQQTTA [L67A],decreasing interaction

# Variants of: B1
# Details: with md2l2_human MAD2L2, Q9UI95
# Sequence of md2l2_human MAD2L2, Q9UI95 (Q9UI95 whole entry): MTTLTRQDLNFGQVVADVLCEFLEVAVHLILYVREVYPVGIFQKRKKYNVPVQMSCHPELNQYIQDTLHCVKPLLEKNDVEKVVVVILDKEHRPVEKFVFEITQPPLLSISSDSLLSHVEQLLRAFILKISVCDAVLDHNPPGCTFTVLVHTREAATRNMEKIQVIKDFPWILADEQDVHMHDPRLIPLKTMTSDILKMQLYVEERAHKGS
row,Variant,effect of a mutation on the interaction
1,MHNVSTTTTGFPLAKILTSTELGDNTIQAANDAANKLFSLTIADLTANQNINTTNAHSTSAILIPELKAPKSLNASSQLTLLIGNLIQILGEKSLTALTNKITAWKSQQQARQQKNLEFSDKINTLLSETEGLTRDYEKQINKLKNADSKIKDLENKINQIQTRLSELDPESPEKKKLSREEIQLTIKKDAAVKDRTLIEQKTLSIHSKLTDKSMQLEKEIDSFSAFSNTASAEQLSTQQKSLTGLASVTQLMATFIQLVGKNNEESLKNDLALFQSLQESRKTEMERKSDEYAAEVRKAEELNRVMGCVGKILGALLTIVSVVAAAFSGGASLALAAVGLALMVTDAIVQAATGNSFMEQALNPIMKAVIEPLIKLLSDAFTKMLEGLGVDSKKAKMIGSILGAIAGALVLVAAVVLVATVGKQAAAKLAENIGKIIGKTLTDLIPKFLKNFSSQLDDLITNAVARLNKFLGAAGDEVISKQIISTHLNQAVLLGESVNSATQAGGSVASAVFQNSASTNLADLTLSKYQVEQLSKYISEAIEKFGQLQEVIADLLASMSNSQANRTDVAKAILQQTTA [N61A],decreasing interaction
